Measurements taken from PMC11807975, “The secreted host-cell protein clusterin interacts with PmpD and promotes Chlamydia trachomatis infection” (Frontiers in Cellular and Infection Microbiology, 2024).
Values joined by “and” are separate entries in the source; they are usually repeats but may differ in a detail not shown here. Identical values can stand only once.

Molecular target: the molecule itself
Assay: native gel or EMSA; Blue Native-PAGE (Native PAGE Novex 3-12% Bis-Tris) of the SEC elution fraction of rD72 at 1.4 ml; Coomassie stain

B1: recombinant D72 (rD72), proteolytically processed fragment of Chlamydia trachomatis serovar E PmpD, residues 68-761, N-terminal 10x His-Tag (domain or fragment)
chain: DSQAEGQYRLIVGDPSSFQEKDADTLPGKVEQSTLFSVTNPVVFQGVDQQDQVSSQGLICSFTSSNLDSPRDGESFLGIAFVGDSSKAGITLTDVKASLSGAALYSTEDLIFEKIKGGLEFASCSSLEQGGACAAQSILIHDCQGLQVKHCTTAVNAEGSSANDHLGFGGGAFFVTGSLSGEKSLYMPAGDMVVANCDGAISFEGNSANFANGGAIAASGKVLFVANDKKTSFIENRALSGGAIAASSDIAFQNCAELVFKGNCAIGTEDKGSLGGGAISSLGTVLLQGNHGITCDKNESASQGGAIFGKNCQISDNEGPVVFRDSTACLGGGAIAAQEIVSIQNNQAGISFEGGKASFGGGIACGSFSSAGGASVLGTIDISKNLGAISFSRTLCTTSDLGQMEYQGGGALFGENISLSENAGVLTFKDNIVKTFASNGKILGGGAILATGKVEITNNSEGISFTGNARAPQALPTQEEFPLFSKKEGRPLSSGYSGGGAILGREVAILHNAAVVFEQNRLQCSEEEATLLGCCGGGAVHGMDSTSIVGNSSVRFGNNYAMGQGVSGGALLSKTVQLAGNGSVDFSRNIASLGGGALQASEGNCELVDNGYVLFRDNRGRVYGGAISCLRGDVVISGNKGRVEFKDNIATRLYVEETVEKVEEVEPAPEQKDNNELSFLGRAEQSFITAANQA
notes: In solution a high-molecular-weight oligomer (720-1048 kDa by Blue Native-PAGE, calculated 10- to 15-mer); also called rPmpD; His-PmpD; source: E. coli Origami, purified (Ni-NTA agarose, dialysed in PBS); not shown: 10xHis, N-terminal, kept; copies: 10-15
B1 was tested, and the “stoichiometry N” value was 10 and 15.
